Experiments:
[1] = target: NKG2d (NKG2-D type II integral membrane protein) on NKL cells / NK cells (human) (UniProt P26718); assay: flow cytometry on NKL cells, secondary antibody alone without primary antibody (background control), column 6 nM
[2] = target: NKG2d (NKG2-D type II integral membrane protein) on NKL cells / NK cells (human) (UniProt P26718); assay: flow cytometry on NKL cells, secondary antibody alone without primary antibody (background control), column 60 nM
[3] = target: NKG2d (NKG2-D type II integral membrane protein) on NKL cells / NK cells (human) (UniProt P26718); assay: flow cytometry on NKL cells, secondary antibody alone without primary antibody (background control), column 0.6 nM

Chain of NKG2d (NKG2-D type II integral membrane protein) on NKL cells / NK cells (human) (P26718 whole entry): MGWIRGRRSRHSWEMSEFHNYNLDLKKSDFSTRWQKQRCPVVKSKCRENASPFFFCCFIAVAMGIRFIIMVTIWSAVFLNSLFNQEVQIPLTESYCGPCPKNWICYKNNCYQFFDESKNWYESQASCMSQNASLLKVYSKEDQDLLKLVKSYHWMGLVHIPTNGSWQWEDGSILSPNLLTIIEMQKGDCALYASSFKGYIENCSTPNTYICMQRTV

geomean fluorescence [1]: 115
geomean fluorescence [2]: 63.8
geomean fluorescence [3]: 92.6
Substance: secondary antibody only (Goat anti hu-Fc AF647)

Source: patent US20240182582A1
